Data taken from US10087225B2, “Formulation of MK2 inhibitor peptides” (MOERAE MATRIX, INC., priority 2015, dated 2018).

Assays:
Experiment in all cases: Kinase Profiling Assay
Assay type in all cases: biochemical
Details in all cases: for % activity: 100 μM
EGFR(L858R)(h) = EGFR(L858R)(h) (Homo sapiens, UniProt P00533, L858R)
EphA8(h) = target: T1, EphA8(h) (Homo sapiens, UniProt P29322)
T1 sequence (P29322 28-1005): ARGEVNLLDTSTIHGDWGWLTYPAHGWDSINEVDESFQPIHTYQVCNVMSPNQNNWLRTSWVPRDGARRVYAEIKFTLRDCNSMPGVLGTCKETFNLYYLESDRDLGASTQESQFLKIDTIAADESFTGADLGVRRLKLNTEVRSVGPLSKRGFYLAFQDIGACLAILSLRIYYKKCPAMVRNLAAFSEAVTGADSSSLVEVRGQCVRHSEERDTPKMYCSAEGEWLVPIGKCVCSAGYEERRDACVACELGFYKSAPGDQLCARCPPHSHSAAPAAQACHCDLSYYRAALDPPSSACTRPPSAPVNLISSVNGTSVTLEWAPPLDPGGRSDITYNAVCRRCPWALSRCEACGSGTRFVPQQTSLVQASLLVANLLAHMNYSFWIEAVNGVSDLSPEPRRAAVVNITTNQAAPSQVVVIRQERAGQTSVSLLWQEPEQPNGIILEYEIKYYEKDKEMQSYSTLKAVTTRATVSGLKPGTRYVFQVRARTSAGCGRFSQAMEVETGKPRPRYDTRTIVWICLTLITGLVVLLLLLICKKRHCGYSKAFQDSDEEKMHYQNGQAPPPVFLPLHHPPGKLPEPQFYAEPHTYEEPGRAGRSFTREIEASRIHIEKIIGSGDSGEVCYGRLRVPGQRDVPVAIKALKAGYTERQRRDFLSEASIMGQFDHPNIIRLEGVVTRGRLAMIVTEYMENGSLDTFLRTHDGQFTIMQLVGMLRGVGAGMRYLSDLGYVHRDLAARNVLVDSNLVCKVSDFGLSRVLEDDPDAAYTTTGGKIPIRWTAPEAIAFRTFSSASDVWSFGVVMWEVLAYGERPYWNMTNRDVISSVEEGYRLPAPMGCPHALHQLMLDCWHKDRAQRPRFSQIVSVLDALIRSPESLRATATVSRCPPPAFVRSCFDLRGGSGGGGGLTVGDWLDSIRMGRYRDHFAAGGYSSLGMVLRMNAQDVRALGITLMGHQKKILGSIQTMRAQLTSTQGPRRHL

Mer(h) = target: T2, Mer(h) (Homo sapiens, UniProt Q12866)
T2 sequence (Q12866 21-999): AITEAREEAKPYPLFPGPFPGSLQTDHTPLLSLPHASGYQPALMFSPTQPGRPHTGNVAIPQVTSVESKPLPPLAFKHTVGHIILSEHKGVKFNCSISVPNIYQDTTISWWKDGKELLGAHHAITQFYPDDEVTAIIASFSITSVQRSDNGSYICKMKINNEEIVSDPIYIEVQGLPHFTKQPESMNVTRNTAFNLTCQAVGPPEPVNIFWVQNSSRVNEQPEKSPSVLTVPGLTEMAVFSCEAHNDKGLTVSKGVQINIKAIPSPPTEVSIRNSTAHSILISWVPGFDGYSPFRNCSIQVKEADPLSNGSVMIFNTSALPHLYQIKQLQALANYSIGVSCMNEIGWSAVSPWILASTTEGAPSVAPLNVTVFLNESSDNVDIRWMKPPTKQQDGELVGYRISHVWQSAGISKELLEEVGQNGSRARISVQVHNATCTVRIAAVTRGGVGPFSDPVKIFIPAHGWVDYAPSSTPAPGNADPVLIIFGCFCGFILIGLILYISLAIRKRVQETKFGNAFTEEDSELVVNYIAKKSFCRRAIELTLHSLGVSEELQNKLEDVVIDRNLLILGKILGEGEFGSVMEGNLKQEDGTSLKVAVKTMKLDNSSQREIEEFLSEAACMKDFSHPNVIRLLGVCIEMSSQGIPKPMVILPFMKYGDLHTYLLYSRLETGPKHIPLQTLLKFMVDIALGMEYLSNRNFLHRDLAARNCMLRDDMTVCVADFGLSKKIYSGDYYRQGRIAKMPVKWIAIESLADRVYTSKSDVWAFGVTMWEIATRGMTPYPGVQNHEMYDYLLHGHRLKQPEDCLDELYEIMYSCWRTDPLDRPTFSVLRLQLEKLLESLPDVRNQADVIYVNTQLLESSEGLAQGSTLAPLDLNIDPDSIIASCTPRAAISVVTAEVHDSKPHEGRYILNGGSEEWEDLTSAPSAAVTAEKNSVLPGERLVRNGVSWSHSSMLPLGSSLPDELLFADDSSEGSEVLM

PKCζ(h) = target: T3, PKCζ(h) (Homo sapiens, UniProt Q05513)
T3 sequence (Q05513 1-592): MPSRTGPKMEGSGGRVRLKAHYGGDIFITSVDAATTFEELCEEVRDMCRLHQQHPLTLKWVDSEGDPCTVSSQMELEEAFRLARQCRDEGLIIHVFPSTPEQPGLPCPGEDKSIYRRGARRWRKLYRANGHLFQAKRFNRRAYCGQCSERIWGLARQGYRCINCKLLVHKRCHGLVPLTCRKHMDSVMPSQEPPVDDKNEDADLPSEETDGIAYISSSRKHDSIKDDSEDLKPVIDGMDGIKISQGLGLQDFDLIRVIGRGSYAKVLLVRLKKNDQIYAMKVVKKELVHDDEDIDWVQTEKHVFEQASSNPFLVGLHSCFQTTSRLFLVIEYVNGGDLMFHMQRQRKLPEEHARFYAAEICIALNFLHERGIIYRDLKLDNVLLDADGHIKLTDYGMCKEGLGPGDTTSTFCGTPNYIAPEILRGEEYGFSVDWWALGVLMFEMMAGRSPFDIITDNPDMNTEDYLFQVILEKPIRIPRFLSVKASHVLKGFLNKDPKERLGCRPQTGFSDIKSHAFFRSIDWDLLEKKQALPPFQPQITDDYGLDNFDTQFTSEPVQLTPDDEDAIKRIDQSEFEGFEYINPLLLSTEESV

Row | Substance | activity at 100 µM (EGFR(L858R)(h)) [%] | activity at 100 µM (EphA8(h)) [%] | activity at 100 µM (Mer(h)) [%] | activity at 100 µM (PKCζ(h)) [%] | % activity (EGFR(L858R)(h)) [%] | % activity (EphA8(h)) [%] | % activity (Mer(h)) [%] | % activity (PKCζ(h)) [%]
1 | H-YARAAARQARAKALARQLGVAA-OH [MMI-0100] | 76 | 181 | 47 | 82 | – | – | – | –
2 | HRRIKAWLKKIKALARQLGVAA (Mammalian) [MMI-0500] | – | – | – | – | 26 | 337 | 17 | 7
3 | YARAAARQARAKALNRQLGVA (Mammalian) [MMI-0200] | – | – | – | – | 120 | 133 | 90 | 98
